Measured values from paper PMC12663545.

Experiments:
[1] = target: Chloroflexus aurantiacus succinate dehydrogenase (CaSDH) monomer of SdhA, SdhB and SdhC (Chloroflexus aurantiacus J-10-fl (endogenous)); assay: cryo-EM structure
[2] = target: Chloroflexus aurantiacus succinate dehydrogenase (CaSDH) monomer of SdhA, SdhB and SdhC (Chloroflexus aurantiacus J-10-fl (endogenous)); assay: native gel or EMSA

## Chloroflexus aurantiacus succinate dehydrogenase (CaSDH) monomer of SdhA, SdhB and SdhC (complex)
[1]
  stoichiometry N: 3
[2]
  stoichiometry N: 3
